Tests used:
Experiment in all cases: purified protein
Format in all cases: biochemical, Dictyostelium discoideum
purified protein [1] = substrate: CCn1c(=NN=c2sc3cc(S(=O)(=O)O)ccc3n2CC)sc2cc(S(=O)(=O)O)ccc21; settings: 1 mM H2O2, 50 mM sodium acetate pH 4.0, 150 mM NaCl, 25 °C
purified protein [2] = substrate: COc1ccc(CO)cc1OC; settings: 1 mM H2O2, 50 mM sodium acetate pH 4.0, 150 mM NaCl, 25 °C
purified protein [3] = substrate: Nc1c(S(=O)(=O)O)cc(Nc2ccc(S(=O)(=O)O)c(Nc3nc(Cl)nc(Cl)n3)c2)c2c1C(=O)c1ccccc1C2=O; settings: 1 mM H2O2, 50 mM sodium citrate pH 3.0, 150 mM NaCl, 25 °C

B1: Dictyostelium DyPA (Dictyostelium discoideum) (protein)
chain: MAQSTVLPMHCLYGIFLEGNLKIQKNDQEGLKKFKDNIKKFTLELDEIDKISPQSRIGGAICFSSDIWDTVTKKISKPKELKSVNTLSSYMPGTSQRDILIHIISDRMDTCFKLAQDTMRNFGEDQLDIKQEIHGFRRVEERDLTDFIDGTENPDGDELRTQYGLVAAGQPNEFGSYVFTQRYVHNLKKWYPEPLSVQQDTVGRTKKDSIEIPRDKRPITSHVSRTDLSENGKDLKIVRQSLPYGQITGEKGLMFIAYACSLHNIEKQLQSMFGQLDGKHDLLLKYTTPVTGSFYFAPSKKELLEL
notes: recombinant from E. coli Rosetta(DE3)pLysS, heme-reconstituted with hemin; homodimer
Q: For B1, which Km (purified protein [1]) is on record?
A: 4.1 ± 0.4 mM

Q: And the kcat (purified protein [1])?
A: 89.9 ± 4.3 s⁻¹

Q: And the kcat/Km (purified protein [1])?
A: 21900 M⁻¹ s⁻¹

Q: What about the Km (purified protein [2]) of the same protein?
A: 0.166 ± 0.058 mM

Q: And the kcat (purified protein [2])?
A: 0.000338 ± 3.5e-05 s⁻¹

Q: And the kcat/Km (purified protein [2])?
A: 2.03 M⁻¹ s⁻¹

Q: What about the Km (purified protein [3]) of the same protein?
A: 0.04 ± 0.01 mM

Q: What about the kcat (purified protein [3]) of the same protein?
A: 5.2 ± 0.38 s⁻¹

Q: What about the kcat/Km (purified protein [3]) of the same protein?
A: 130000 M⁻¹ s⁻¹

From paper PMC8230527, “Structural and Biochemical Characterization of a Dye-Decolorizing Peroxidase from Dictyostelium discoideum” (International Journal of Molecular Sciences, 2021)
